Where no end group is shown, it is not given here.
What follows are binders tested against EGLN1 (assay: cell-based or functional assay).

Row | Binder | Activity (%)*
1 | DTDLDLEARAPYIPADDDFQ [DTDLDLEARApYIPADDDFQ] | 79%
2 | DTDLDFEALAPYIPADDDFQ [DTDLDFEALApYIPADDDFQ] | 65.2%
3 | DTDLDLEAKAPYIPADDDFQ [DTDLDLEAKApYIPADDDFQ] | 63.2%
4 | DTDLDDEALAPYIPADDDFQ [DTDLDDEALApYIPADDDFQ] | 51%
5 | DTDLDAEALAPYIPADDDFQ [DTDLDAEALApYIPADDDFQ] | 51%
6 | DTDLDLEAMAPYIPADDDFQ [DTDLDLEAMApYIPADDDFQ] | 63.7%
7 | DTDLDLEATAPYIPADDDFQ [DTDLDLEATApYIPADDDFQ] | 68.2%
8 | DTDLDIEAIAPYIPADDDFQ [DTDLDIEAIApYIPADDDFQ] | 72.5%
9 | DTDLDLEAFAPYIPADDDFQ [DTDLDLEAFApYIPADDDFQ] | 82.2%

The remaining lines, values ahead:

Row | Activity (%)* | Binder
10 | 4.16% | DTDLDLEMLFPYIPMDDDFQ (not fully specified; printed as DTDLDLEMLFpYIPMDDDFQ) [DTDLDLEMLFpYIPMDDDFQ]
11 | 108% | DTDLDWEALAPYIPADDDFQ (not fully specified; printed as DTDLDWEALApYIPADDDFQ) [DTDLDWEALApYIPADDDFQ]
12 | 86.4% | DTDLDMEALAPYIPADDDFQ (not fully specified; printed as DTDLDMEALApYIPADDDFQ) [DTDLDMEALApYIPADDDFQ]
13 | 2.27% | DTDLDLEMLEPYIPMDDDFQ (not fully specified; printed as DTDLDLEMLEpYIPMDDDFQ) [DTDLDLEMLEpYIPMDDDFQ]
14 | 77.2% | DTDLDLEAYAPYIPADDDFQ (not fully specified; printed as DTDLDLEAYApYIPADDDFQ) [DTDLDLEAYApYIPADDDFQ]
15 | 2.36% | DTDLDLEMLLPYIPMDDDFQ (not fully specified; printed as DTDLDLEMLLpYIPMDDDFQ) [DTDLDLEMLLpYIPMDDDFQ]
16 | 1.94% | DTDLDLEMLCPYIPMDDDFQ (not fully specified; printed as DTDLDLEMLCpYIPMDDDFQ) [DTDLDLEMLCpYIPMDDDFQ]
17 | 2.41% | DTDLDLEMLHPYIPMDDDFQ (not fully specified; printed as DTDLDLEMLHpYIPMDDDFQ) [DTDLDLEMLHpYIPMDDDFQ]

The binders below were run against EGLN3 (assay: cell-based or functional assay).

Row | Binder | Activity (%)*
18 | DTDLDLEARAPYIPADDDFQ [DTDLDLEARApYIPADDDFQ] | 68.6%
19 | DTDLDFEALAPYIPADDDFQ [DTDLDFEALApYIPADDDFQ] | 142%
20 | DTDLDLEAKAPYIPADDDFQ [DTDLDLEAKApYIPADDDFQ] | 44.1%
21 | DTDLDDEALAPYIPADDDFQ [DTDLDDEALApYIPADDDFQ] | 65%
22 | DTDLDAEALAPYIPADDDFQ [DTDLDAEALApYIPADDDFQ] | 87.2%
23 | DTDLDLEAMAPYIPADDDFQ [DTDLDLEAMApYIPADDDFQ] | 94.3%
24 | DTDLDLEATAPYIPADDDFQ [DTDLDLEATApYIPADDDFQ] | 63.2%
25 | DTDLDIEAIAPYIPADDDFQ [DTDLDIEAIApYIPADDDFQ] | 72.8%
26 | DTDLDLEAFAPYIPADDDFQ [DTDLDLEAFApYIPADDDFQ] | 76.4%

The next lines start with the values.

Row | Activity (%)* | Binder
27 | 59.3% | DTDLDLEMLFPYIPMDDDFQ (not fully specified; printed as DTDLDLEMLFpYIPMDDDFQ) [DTDLDLEMLFpYIPMDDDFQ]
28 | 120% | DTDLDWEALAPYIPADDDFQ (not fully specified; printed as DTDLDWEALApYIPADDDFQ) [DTDLDWEALApYIPADDDFQ]
29 | 128% | DTDLDMEALAPYIPADDDFQ (not fully specified; printed as DTDLDMEALApYIPADDDFQ) [DTDLDMEALApYIPADDDFQ]
30 | 52.8% | DTDLDLEMLEPYIPMDDDFQ (not fully specified; printed as DTDLDLEMLEpYIPMDDDFQ) [DTDLDLEMLEpYIPMDDDFQ]
31 | 90.1% | DTDLDLEAYAPYIPADDDFQ (not fully specified; printed as DTDLDLEAYApYIPADDDFQ) [DTDLDLEAYApYIPADDDFQ]
32 | 46.2% | DTDLDLEMLLPYIPMDDDFQ (not fully specified; printed as DTDLDLEMLLpYIPMDDDFQ) [DTDLDLEMLLpYIPMDDDFQ]
33 | 63.1% | DTDLDLEMLCPYIPMDDDFQ (not fully specified; printed as DTDLDLEMLCpYIPMDDDFQ) [DTDLDLEMLCpYIPMDDDFQ]
34 | 68.2% | DTDLDLEMLHPYIPMDDDFQ (not fully specified; printed as DTDLDLEMLHpYIPMDDDFQ) [DTDLDLEMLHpYIPMDDDFQ]

Each binder was assayed against EGLN2 (assay: cell-based or functional assay).

Row | Binder | Activity (%)*
35 | DTDLDLEARAPYIPADDDFQ [DTDLDLEARApYIPADDDFQ] | 78.6%
36 | DTDLDFEALAPYIPADDDFQ [DTDLDFEALApYIPADDDFQ] | 58.6%
37 | DTDLDLEAKAPYIPADDDFQ [DTDLDLEAKApYIPADDDFQ] | 54.6%
38 | DTDLDDEALAPYIPADDDFQ [DTDLDDEALApYIPADDDFQ] | 42.8%
39 | DTDLDAEALAPYIPADDDFQ [DTDLDAEALApYIPADDDFQ] | 46.9%
40 | DTDLDLEAMAPYIPADDDFQ [DTDLDLEAMApYIPADDDFQ] | 55.8%
41 | DTDLDLEATAPYIPADDDFQ [DTDLDLEATApYIPADDDFQ] | 54.9%
42 | DTDLDIEAIAPYIPADDDFQ [DTDLDIEAIApYIPADDDFQ] | 64.3%
43 | DTDLDLEAFAPYIPADDDFQ [DTDLDLEAFApYIPADDDFQ] | 73.9%

More lines, now with the values ahead:

Row | Activity (%)* | Binder
44 | 0.63% | DTDLDLEMLFPYIPMDDDFQ (not fully specified; printed as DTDLDLEMLFpYIPMDDDFQ) [DTDLDLEMLFpYIPMDDDFQ]
45 | 138% | DTDLDWEALAPYIPADDDFQ (not fully specified; printed as DTDLDWEALApYIPADDDFQ) [DTDLDWEALApYIPADDDFQ]
46 | 79.1% | DTDLDMEALAPYIPADDDFQ (not fully specified; printed as DTDLDMEALApYIPADDDFQ) [DTDLDMEALApYIPADDDFQ]
47 | 3.35% | DTDLDLEMLEPYIPMDDDFQ (not fully specified; printed as DTDLDLEMLEpYIPMDDDFQ) [DTDLDLEMLEpYIPMDDDFQ]
48 | 67.8% | DTDLDLEAYAPYIPADDDFQ (not fully specified; printed as DTDLDLEAYApYIPADDDFQ) [DTDLDLEAYApYIPADDDFQ]
49 | -0.42% | DTDLDLEMLLPYIPMDDDFQ (not fully specified; printed as DTDLDLEMLLpYIPMDDDFQ) [DTDLDLEMLLpYIPMDDDFQ]
50 | 0.4% | DTDLDLEMLCPYIPMDDDFQ (not fully specified; printed as DTDLDLEMLCpYIPMDDDFQ) [DTDLDLEMLCpYIPMDDDFQ]
51 | 3.47% | DTDLDLEMLHPYIPMDDDFQ (not fully specified; printed as DTDLDLEMLHpYIPMDDDFQ) [DTDLDLEMLHpYIPMDDDFQ]

— patent publication US20080113383A1 (FIBRO GEN, published 2008)
